Laboratory results: publication PMC5724578 (Biochemistry, 2017)

Experiment: Stability of EVH1 mutant in aqueous solution
Format: physicochemical

B1: EVH1 Y39E: phosphomimetic Y39E mutant of human VASP EVH1 domain (protein)
chain: GPGGRMSSETVICSSRATVMLYDDGNKRWLPAGTGPQAFSRVQIEHNPTANSFRVVGRKMQPDQQVVINCAIVRGVKYNQATPNFHQWRDARQVWGLNFGSKEDAAQFAAGMASALEALEG
modifications: left off: His tag, end not stated, cleaved
With B1 the “stability in aqueous solution” value was “stable in aqueous solution”.
